Data on 3 proteins can be found in paper PMC8062630, “Structure and assembly of double-headed Sendai virus nucleocapsids” (Communications Biology, 2021).

Numbering of substitutions follows the chain as printed.

Series [1] concerns the molecule itself. Description: cryo-EM structure; helical reconstruction of the helical stems of double-headed nucleocapsids (RELION 3.1); protein with bound host RNA in 20 mM Tris-HCl pH 7.4, 150 mM NaCl.
Series [2] concerns the molecule itself. The experiment in a line: cryo-EM imaging of filaments; nucleoprotein fractions from HEK293F lysate after two-step sucrose ultracentrifugation, put directly on cryo-EM grids.
Series [3] concerns the molecule itself. Description: electron microscopy of purified filaments; purified mutant nucleoproteins imaged by EM; whether negative stain or cryo-EM is not told in the text shown.

B1: Sendai virus nucleoprotein, wild type, uncleaved (NWT), assembled as nucleocapsid NCWT (natural protein)
chain: MAGLLSTFDTFSSRRSESINKSGGGAVIPGQRSTVSVFVLGPSVTDDADKLSIATTFLAHSLDTDKQHSQRGGFLVSLLAMAYSSPELYLTTNGVNADVKYVIYNIEKDPKRTKTDGFIVKTRDMEYERTTEWLFGPMVNKSPLFQGQRDAADPDTLLQIYGYPACLGAIIVQVWIVLVKAITSSAGLRKGFFNRLEAFRQDGTVKGALVFTGETVEGIGSVMRSQQSLVSLMVETLVTMNTARSDLTTLEKNIQIVGNYIRDAGLASFMNTIKYGVETKMAALTLSNLRPDINKLRSLIDTYLSKGPRAPFICILKDPVHGEFAPGNYPALWSYAMGVAVVQNKAMQQYVTGRTYLDMEMFLLGQAVAKDAESKISSALEDELGVTDTAKERLRHHLANLSGGDGAYHKPTGGGAIEVALDNADIDLEPEAHTDQDARGWGGDSGDRWARSMGSGHFITLHGAERLEEETNDEDVSDIERRIARRLAERRQEDATTHEDEGRNNGVDHDEEDDAAAAAGMGGI
notes: Sendai virus nucleoprotein (N), wild type, uncleaved; the N-tail is printed as 404-524; helical polymer, number of protomers not fixed; also called SeV nucleoprotein; SeV nucleocapsid; source: E. coli BL21 (DE3), purified (HisTrap HP, Superose 6 increase)
With B1, the binding result in series [1] is recorded as “binds”.

B2: Sendai virus nucleoprotein NWT over-expressed in HEK293F cells (natural protein)
chain: B1 chain
notes: Sendai virus nucleoprotein (N), wild type; Fractions were chosen by western blot against the 6xHis tag; also called NWT in pCAGGS; nucleoproteins isolated from HEK293F cells; source: HEK293F, transfected, isolated from lysate by two-step sucrose ultracentrifugation; not shown: His6, C-terminal, kept
With B2, the binding result in series [2] is “binds”.

B3: Sendai virus nucleoprotein loop mutant (residues 118 to 127 replaced with all alanine) (natural protein)
chain: B1 chain with F118A, I119A, V120A, K121A, T122A, R123A, D124A, M125A, E126A, Y127A
notes: Sendai virus nucleoprotein (N), derivative of NWT; also called Loop118–127 mutant; source: E. coli BL21 (DE3), purified (HisTrap HP, Superose 6 increase)
In the case of B3, the binding result in series [3] is on record as “binds”.
